One may read the stoichiometry N as the number of molecules, sites or subunits per partner or assembly.

Data set [1] addresses T1, Pex5 (full-length Saccharomyces cerevisiae Pex5, 1-612, His-Sumo fusion cleaved off) (Saccharomyces cerevisiae, UniProt P35056 1-612).
T1 construct: Pex5, peroxisomal PTS1 cargo factor, Saccharomyces cerevisiae, full-length (1-612), cloned into pET28-bdSumo; only L276-F612 is resolved in the cryo-EM map; also called yeast Pex5; full-length yeast Pex5; source: for cryo-EM co-expressed with Eci1 and co-purified (Ni beads, elution by bdSumo protease, SEC); not shown: His tag, N-terminal, cleaved; bdSumo, N-terminal, cleaved
T1 sequence (looked up): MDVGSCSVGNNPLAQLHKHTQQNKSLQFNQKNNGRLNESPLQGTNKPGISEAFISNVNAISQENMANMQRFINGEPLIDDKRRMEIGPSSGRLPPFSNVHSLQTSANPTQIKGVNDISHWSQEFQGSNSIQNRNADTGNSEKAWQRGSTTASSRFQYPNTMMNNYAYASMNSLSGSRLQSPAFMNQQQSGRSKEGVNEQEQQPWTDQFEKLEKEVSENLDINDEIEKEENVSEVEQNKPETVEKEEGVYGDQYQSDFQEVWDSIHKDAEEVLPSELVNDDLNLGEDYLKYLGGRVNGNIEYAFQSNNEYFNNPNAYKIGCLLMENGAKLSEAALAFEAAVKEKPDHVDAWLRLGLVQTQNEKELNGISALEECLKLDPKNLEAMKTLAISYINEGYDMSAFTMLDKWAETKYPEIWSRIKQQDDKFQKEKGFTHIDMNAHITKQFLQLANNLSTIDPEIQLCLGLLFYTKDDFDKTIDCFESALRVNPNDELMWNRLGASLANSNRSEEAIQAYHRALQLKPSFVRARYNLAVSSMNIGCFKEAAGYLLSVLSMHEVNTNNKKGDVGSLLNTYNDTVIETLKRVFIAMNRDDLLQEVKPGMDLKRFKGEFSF
In words: cryo-EM structure; single-particle cryo-EM of the co-expressed, co-purified Pex5–Eci1 complex (2 mg/ml, in PBS); 2.7 Å global, 2.9 Å local refinement of Pex5 and the interface. The conditions noted are these: both partners purified.

Data set [2] concerns the molecule itself. The data set is described as above.

B1: FLAG-Eci1 wild type (Saccharomyces cerevisiae Δ3,Δ2-enoyl-CoA isomerase 1) (natural protein, UniProt Q05871 1-280, looked up)
chain: MSQEIRQNEKISYRIEGPFFIIHLMNPDNLNALEGEDYIYLGELLELADRNRDVYFTIIQSSGRFFSSGADFKGIAKAQGDDTNKYPSETSKWVSNFVARNVYVTDAFIKHSKVLICCLNGPAIGLSAALVALCDIVYSINDKVYLLYPFANLGLITEGGTTVSLPLKFGTNTTYECLMFNKPFKYDIMCENGFISKNFNMPSSNAEAFNAKVLEELREKVKGLYLPSCLGMKKLLKSNHIDAFNKANSVEVNESLKYWVDGEPLKRFRQLGSKQRKHRL
notes: Eci1 (Δ3,Δ2-enoyl-CoA isomerase 1), Saccharomyces cerevisiae, wild type, M1-L280, ends in the PTS1 tripeptide 278HRL280; cloned into the first open reading frame of pACYCDuet-1; A TEV cleavage site follows the N-terminal FLAG tag; no TEV cleavage is described; Hexamer by cryo-EM; also called Eci1 WT; Eci1 (WT); source: E. coli BL21(DE3): co-expressed with Pex5, in lysate (pull-down); purified …
With B1, the “stoichiometry N” value worked out at 6 Eci1 per Pex5 in data set [1] and 6 in data set [2].

The values are drawn from paper PMC12273641, “A cryo-electron microscopy structure of yeast Pex5 in complex with a cargo uncovers a novel binding interface” (Journal of Cell Science, 2025).
